Results from the supplement of paper PMC9170038.

Test system: K4 kissing-loop RNA reporter
Test: apparent KD of K4 kissing-loop reporter; higher = weaker reporter binding
Conditions: Eterna round: R107; input ligand: arginine 13.2 mM
Method: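 RNA-MaP round R107: designed RNA switches with theophylline, tryptophan, arginine or FMN aptamers are transcribed on-chip within common flanks. They are titrated with a labelled K4 kissing-loop RNA reporter in RNA-MaP buffer (100 mM Tris pH 7.5, 80 mM KCl, 4 mM MgCl2), without ligand or with the indicated ligand. Median apparent KD per design.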
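Note: bound reporter read as fluorescence of individual clusters on recovered sequencing chips by microscopy, with normalized cluster intensities fitted with a binding model.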

Sequence | apparent KD of K4 kissing-loop reporter [µM]
AAUAAAAUCACGGCCGCCACUGAAUAAUUGGUAAGUAGUGAUGUUACUUUACAUAUCUUAUUUAACAGGACCGGGUGAAUAUUUA [JR_ExcTryptoB_Sub008] | 0.0924
UAUGUACACGGGUAGUGGUACAUCGAGGAAGGAGCGUGCGCAGGCACAGGUAGGUCGCCUCAGCGCACGAGUGAUGUUCGUGGGC [Inares] | 0.259
CGGAGUGAUGUUCCGUUAAUUCCUUAUUUACGAGGACCGGUACGGCCGCCACUCGAUUUUGCUUUUAUUUAAUGUUUGGAAAUUU [JR_SSTryptoA_Sub007] | 0.274
AAAGGUUGAAGUGAUACCAGACUAGCAGUGAUGUUGCGCCAAAGUGAGUGAUGUUCACCAGUCCCUUGGCAGCACAUGCCUAAAG [Same State Theophylline B GF 13] | 0.89
UGUACCGAGUAAGGAUAUGUCGUCGAAAGACGAAAUGGAGUGAUGUUCCUUAAACUGCGAAAGCAGACAGAAGGUACUUGGUACU [FmnBS 29 A11+U75] | 0.217
UUUUAUUAAUACUUCUAGUGAUGUUAGAUACGAGGACCGGUACGGCCGCCACUCGCUUAUUGGUUUAUAUAUUUUUUAUUCUUUA [JR_SSTryptoA_Sub013] | 0.349

Same assay, conditions: Eterna round: R107; input ligand: none

Sequence | apparent KD of K4 kissing-loop reporter [µM]
AGAUAGGGCUGAAGGAGCGUCGGAGAAGAAAAGAAGAAAUCCAGUGAUGUUGGAUAAAUCCGACAGGUAGGUCGCAGUUUUAUGA [hbob_SS_Arginine_B_2t136] | 0.127
AAGUGAUGUUGUAGUGAUGUUGUGAUGUUGCAGGAUAUAUAGUGAUGUAGAAGGGUAAGUACUGAUUUUUUUUUUGAGUGAUGUU [ccbyzrmullin] | 0.0745
UGAUUUAACUGAAGGAGCGGCAAUUGAUAAGUAAAUAUAGUGAUGUUAUAUAAGAUAGAGAGCCAGGUAGGUCGCAGAGGUAUUA [ExArgB.M] | 0.132
AACGCCACCGCGGAUACCAGAGCCAGUGAUGUUGGAUCUGGAAAUUCGUGGGUAAGCUGGCUCCCUUGGCAGCUGCGGUUCUUUU [Tiisaron] | 0.114
AUUAAUAACUGAGGAUAUCGAAAUUAUGUAGUGAUGUUACUGUAAAUUCAAAUUUUCAUUUCUUAACGAGAAGGCAGAAUAAUUA [JR_ExcFMNB_Sub012] | 0.115
GUCAACCCAGCUGAUACCAGCCGGUUACGCACAUGCACACCCAGUGAUGUUGGGUAUUAGGGCCCUUGGCAGCAGCCUCUUGGCU [theeternabot_sameState_KL_Theo_B_30] | 0.169
AUGAGGAACAGUGAUCCUACUCCAUGGGAAGGAGCGUAGGAUACUACAGGUAGGUCGCCCAGUGAUGUUGGGCGCGUGUUCUUGG [Ermaar] | 0.115
UGAUACCAGACGGCCGCCACUAGGACCGGGAGUGAUGUUCCCAAAUUAAAAUACUCGGCCGCCACUAGGACCGGGUCUGGUAUCU [TrypBX 26 #DoubleAptamer #SwitchBubble] | 0.295
AAUAAGCGUGGAAGGAGCGUCGUCCAGUGAUGUUGGAGUUAGAUACCAGUGAUGUUGGUUAGGCAGGUAGGUCGCCGCAAAGCUU [Exclusion Arginine B Gf 7] | 0.0908
CCUUCCACAGAAGGAUAUCGGAGUGAUGUUCCCAAGCAGACCUCAAAGUGGGUAGCCAGUCAGUUCCGAGAAGGUCUGCAGCGAG [theeternabot_exclusion_KL_FMN_B_26] | 0.271
AUAGGAGUGAUGUUCCUUAGUUUCUCCGAUACCAGUAUGGAAACAUACCCUUGGCAGCGGUAAACCGCAGAUUAGGAAACUAGUC [Theophylline A K4 2] | 0.324
GCUUUCCGUGCGGCCGCCACUGAUCUAAGUGAUGUUUAGAUCGCAUUCGAACCGGUUACCCAGAGCAGGACCGGGCACCAGCGCU [theeternabot_exclusion_KL_Trp_B_35] | 0.0898
UGACUGGACUGAAGGAGCGCCACGGUCAUAGACCGAAUAAGGAGUGAUGUUCCACAUAAAAGGCAGGUAGGUCGCAGUCUAGUCU [ArgBS 2 #SwitchBubble #StaticStem] | 0.107
UGGAGUUGACGAAAAGUCAACUCCUGAGAUACCAGUGACGAAAGUCACCCUUGGCAGCUCACUGCCAGUGAUGUUGGUAUAUAAA [#OpenEnded 4] | 0.061
GCUAUGGUAGGAAGGAGCGCGGACGAUAUUUAUCGAGUGAUGUUCGAUUCAUUAAUUUGAACGCAGGUAGGUCGCCUACUAUAGC [Arginine B K4 29] | 0.16
AAGGGCCGGGCGGCCGCCACUGGUCGUGUACACGUACUAACCAGUGAUGUUGGUAUAGUACGCGACAGGACCGGGCCCGGCCCAA [Exclusion - Tryptophan B (Freestyle 30)] | 0.445
AUUUUUUUGUCAGGAUAUUAGUGUUGGUUUGGUUUGUUAGUGAUGUUGAUAUUUGUUUUAUGUAUUUAAGAAGGGAUUUAGAUGU [zaahullin] | 0.335
CGGAUGUAGUGAUGUUAUAUUAGAUGUAGACGAGGACCGGUACGGCCGCCACUCGUGAUGGCUGCUAGCACGUUUCGAGGUUUGC [ExTryptoA.Cp] | 0.604
UGAUACCAGACGGCCGCCACUGGGACCGGGAGUGAUGUUCCGAAAAUUAAAUGCUCGGCCGCCACUAGGACCGGGUCUGGUAUCU [TrypBX 29 #DoubleAptamer #SwitchBubble] | 0.446
UGUGUUGUAUGACGGUUUGUCACUUAGUAUUAGGAUAUAUAAACAAAUAGAAGGGAUGGCGGAGUGAUGUUCCGCCGGCCGCCAU [FMN A Exl V10] | 0.0808
AGGGUAAGGCGUUAACAUGACACCUGGGAAGGAGCGCGGUACACCGCAGGUAGGUCGCCCAGUGAUGUUGGGUGAUUGUAUGAGU [KL-XArg-A24] | 0.136
